Measured values reported in patent US20120114590A1 (priority 2005, published 2012).

Assays:
[1] = molecular target: T1, zcyto20 (human IL-28A) (human) (UniProt Q8IZJ0); test: cell-based or functional assay
T1 sequence: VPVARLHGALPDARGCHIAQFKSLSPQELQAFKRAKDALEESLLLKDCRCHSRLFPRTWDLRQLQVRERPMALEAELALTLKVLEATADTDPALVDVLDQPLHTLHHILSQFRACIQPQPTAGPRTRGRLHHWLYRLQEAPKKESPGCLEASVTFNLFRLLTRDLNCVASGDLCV

[2] = molecular target: zcyto21 (human IL-29) (human) (UniProt Q8IU54); test: cell-based or functional assay
[3] = molecular target: T2, zcyto24 (mouse IL-28A) (mouse) (UniProt Q4VK74); test: cell-based or functional assay
T2 sequence: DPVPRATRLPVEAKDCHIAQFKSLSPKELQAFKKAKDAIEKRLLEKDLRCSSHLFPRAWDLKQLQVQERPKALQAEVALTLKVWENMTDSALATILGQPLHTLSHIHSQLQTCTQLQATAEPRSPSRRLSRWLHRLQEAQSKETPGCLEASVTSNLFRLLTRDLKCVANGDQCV

[4] = system: liver, spleen and blood of mice; test: ISG gene expression (OAS, Pkr, Mx1) in liver, spleen and blood of injected C57BL/6 mice (real-time PCR); type: in vivo, mouse; settings: livers of mice, 100 μg i.v.
Protocol: Mice were sacrificed at various time points (1 hr-48 hr). Spleens and livers were isolated from mice, and RNA was isolated. RNA was also isolated from the blood cells. The cells were pelleted and RNA isolated from pellets using RNAEasy®-kit (Qiagen). RNA was treated with DNase (Amicon) to rid RNA of any contaminating DNA. cDNA was generated using Perkin-Elmer RT mix (Perkin-Elmer). ISG gene induction was measured by real-time PCR using primers and probes specific for mouse OAS, Pkr and Mx1. To obtain quantitative data, HPRT real-time PCR was duplexed with ISG PCR. A standard curve was calculated using known amounts of IFN-stimulated mouse PBLs. All data are shown as expression relative to internal HPRT expression.

[5] = system: 293 HEK cells overexpressing zcytor19; test: Inhibition of ligand-induced ISRE-luciferase signaling by soluble receptors; type: cell-based, human; settings: 10 micrograms/ml soluble receptor

Sequence of zcyto21 (human IL-29) (human) (Q8IU54 20-200): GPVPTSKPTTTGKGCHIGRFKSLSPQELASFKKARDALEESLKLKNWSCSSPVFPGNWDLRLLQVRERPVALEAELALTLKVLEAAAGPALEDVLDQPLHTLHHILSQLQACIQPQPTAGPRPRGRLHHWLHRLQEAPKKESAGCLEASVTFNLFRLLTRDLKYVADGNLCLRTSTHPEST

human CRF2-4-Fc homodimer (from UniProt Q08334 20-220) (Fc fusion)
Percent Inhibition of Ligand-induced Interferon Stimulated Response Element (ISRE) Signaling by Soluble Receptors [1]: 80%
Percent Inhibition of Ligand-induced Interferon Stimulated Response Element (ISRE) Signaling by Soluble Receptors [2]: 79%
Percent Inhibition of Ligand-induced Interferon Stimulated Response Element (ISRE) Signaling by Soluble Receptors [3]: 82%

MetIL-29-PEG: E. coli derived pegylated Met IL-29
Mx1 3 hr ([4]; 3 hr): 537.51 fold expression over HPRT expression
OAS 3 hr ([4]; 3 hr): 91.29 fold expression over HPRT expression
PKR 3 hr ([4]; 3 hr): 18.24 fold expression over HPRT expression
Mx1 6 hr ([4]; 6 hr): 124.99 fold expression over HPRT expression
OAS 6 hr ([4]; 6 hr): 65.93 fold expression over HPRT expression
PKR 6 hr ([4]; 6 hr): 13.93 fold expression over HPRT expression
Mx1 12 hr ([4]; 12 hr): 33.58 fold expression over HPRT expression
OAS 12 hr ([4]; 12 hr): 54.04 fold expression over HPRT expression
PKR 12 hr ([4]; 12 hr): 4.99 fold expression over HPRT expression
Mx1 24 hr ([4]; 24 hr): 35.82 fold expression over HPRT expression
OAS (24 hr) ([4]; 24 hr): 20.81 fold expression over HPRT expression
PKR 24 hr ([4]; 24 hr): 3.77 fold expression over HPRT expression

human zcytor19-Fc/human CRF2-4-Fc heterodimer (from UniProt Q08334 20-220) (Fc fusion)
Percent Inhibition of Ligand-induced Interferon Stimulated Response Element (ISRE) Signaling by Soluble Receptors [1]: 16%
Percent Inhibition of Ligand-induced Interferon Stimulated Response Element (ISRE) Signaling by Soluble Receptors [2]: 16%
Percent Inhibition of Ligand-induced Interferon Stimulated Response Element (ISRE) Signaling by Soluble Receptors [3]: 47%

B1: human zcytor19-Fc homodimer (Fc fusion, not shown: a dimerising Fc or GST)
chain: RPRLAPPQNVTLLSQNFSVYLTWLPGLGNPQDVTYFVAYQSSPTRRRWREVEECAGTKELLCSMMCLKKQDLYNKFKGRVRTVSPSSKSPWVESEYLDYLFEVEPAPPVLVLTQTEEILSANATYQLPPCMPPLDLKYEVAFWKEGAGNKTLFPVTPHGQPVQITLQPAASEHHCLSARTIYTFSVPKYSKFSKPTCFLLEVPEANWA
Percent Inhibition of Ligand-induced Interferon Stimulated Response Element (ISRE) Signaling by Soluble Receptors [1]: 92%
Percent Inhibition of Ligand-induced Interferon Stimulated Response Element (ISRE) Signaling by Soluble Receptors [2]: 45%
Percent Inhibition of Ligand-induced Interferon Stimulated Response Element (ISRE) Signaling by Soluble Receptors [3]: 90%

B2: human zcytor19-Fc homodimeric soluble receptor: homodimeric soluble receptor Fc fusion (protein)
chain: RPRLAPPQNVTLLSQNFSVYLTWLPGLGNPQDVTYFVAYQSSPTRRRWREVEECAGTKELLCSMMCLKKQDLYNKFKGRVRTVSPSSKSPWVESEYLDYLFEVEPAPPVLVLTQTEEILSANATYQLPPCMPPLDLKYEVAFWKEGAGNKTLFPVTPHGQPVQITLQPAASEHHCLSARTIYTFSVPKYSKFSKPTCFLLEVPEANWA
modifications: left off: a dimerising Fc or GST
notes: homodimeric soluble receptor Fc fusion
inhibition of zcyto2′-induced signaling [5]: 45%

B3: murine zcytor19-Ig homodimer (Fc fusion, part only; not given: Ig Fc portion, mouse, UniProt Q8CGK5 21-227, looked up, part only)
chain, part: RPRLAPPRNVTLFSQNFTVYLTWLPGLGSPPNVTYFVTYQSYIKTGWRPVEHCAGIKALVCPLMCLKKLNLYSKFKGRVQAASAHGRSPRVESRYLEYLFDVELAPPTLVLTQMEKILRVNATYQLPPCMPSLELKYQVEFWKEGLGSKTLFPDTPYGQPVQIPLQQGASRRHCLSARTVYTLIDIKYSQFSEPSCIFLEAPGDKRA
Percent Inhibition of Ligand-induced Interferon Stimulated Response Element (ISRE) Signaling by Soluble Receptors [1]: 91%
Percent Inhibition of Ligand-induced Interferon Stimulated Response Element (ISRE) Signaling by Soluble Receptors [2]: 103%
Percent Inhibition of Ligand-induced Interferon Stimulated Response Element (ISRE) Signaling by Soluble Receptors [3]: 89%

B4: muzcytor19-Ig: murine homodimeric soluble receptor Ig fusion (protein)
chain: RPRLAPPRNVTLFSQNFTVYLTWLPGLGSPPNVTYFVTYQSYIKTGWRPVEHCAGIKALVCPLMCLKKLNLYSKFKGRVQAASAHGRSPRVESRYLEYLFDVELAPPTLVLTQMEKILRVNATYQLPPCMPSLELKYQVEFWKEGLGSKTLFPDTPYGQPVQIPLQQGASRRHCLSARTVYTLIDIKYSQFSEPSCIFLEAPGDKRA
modifications: left off: a dimerising Fc or GST
notes: murine homodimeric soluble receptor Ig fusion
effect on ligand-induced signaling [5]: No significant effects

B5: huCRF2-4-Fc: homodimeric soluble receptor Fc fusion (protein)
chain: MVPPPENVRMNSVNFKNILQWESPAFAKGNLTFTAQYLSYRIFQDKCMNTTLTECDFSSLSKYGDHTLRVRAEFADEHSDWVNITFCPVDDTIIGPPGMQVEVLADSLHMRFLAPKIENEYETWTMKNVYNSWTYNVQYWKNGTDEKFQITPQYDFEVLRNLEPWTTYCVQVRGFLPDRNKAGEWSEPVCEQTTHDETVPS
modifications: left off: a dimerising Fc or GST
notes: as for B2
effect on ligand-induced signaling [5]: No significant effects
